T1: TTHA1953 (Thermus thermophilus HB8, UniProt Q5SGX7 1-93)
T1 sequence: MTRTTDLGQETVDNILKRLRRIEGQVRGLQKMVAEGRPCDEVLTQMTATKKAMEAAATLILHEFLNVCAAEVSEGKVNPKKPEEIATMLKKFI

B1: ST2_1953_mt8 (spacer -1) (dsDNA)
DNA 1: CTAGGAATTCGTGCAGAGGTGATACTATACCTGGTATGGTACATCCCTCCAGAAGCTTGGAC
DNA 2: GTCCAAGCTTCTGGAGGGATGTACCATACCAGGTATAGTATCACCTCTGCACGAATTCCTAG
B2: ST2_1953_mt7 (spacer +1) (dsDNA)
DNA 1: CTAGGAATTCGTGCAGAGGTGATACTATACCTCTGGTATGGTACATCCCTCCAGAAGCTTGGAC
DNA 2: GTCCAAGCTTCTGGAGGGATGTACCATACCAGAGGTATAGTATCACCTCTGCACGAATTCCTAG
B3: TTHA1953, CsoR-like protein from Thermus thermophilus HB8 (natural protein, UniProt Q5SGX7 1-93, looked up)
chain: MTRTTDLGQETVDNILKRLRRIEGQVRGLQKMVAEGRPCDEVLTQMTATKKAMEAAATLILHEFLNVCAAEVSEGKVNPKKPEEIATMLKKFI
notes: TTHA1953, CsoR-like protein of Thermus thermophilus HB8; expression vector TEx04A02 bought from RIKEN BioResource Research Center; has two cysteines (C39, C68); No tag is mentioned; Estimated homo-octamer weight 83 kDa, so about 10 kDa a chain; also called CsoR family transcriptional regulator; source: E. coli Rosetta 2 (DE3), purified (1 M NaCl extraction of the pellet after sonication, 70 °C …)
B4: ST2_1953_mt9 (dsDNA)
DNA 1: CTAGGAATTCGTGCAGAGGTGAGCTTATACCTTGTGCTGGTACATCCCTCCAGAAGCTTGGAC
DNA 2: GTCCAAGCTTCTGGAGGGATGTACCAGCACAAGGTATAAGCTCACCTCTGCACGAATTCCTAG
B5: ST2_1953_mt10 (dsDNA)
DNA 1: CTAGGAATTCGTGCAGAGGTGAGCTTAGCTCTTGGTATGGTACATCCCTCCAGAAGCTTGGAC
DNA 2: GTCCAAGCTTCTGGAGGGATGTACCATACCAAGAGCTAAGCTCACCTCTGCACGAATTCCTAG
B6: Control (dsDNA)
DNA 1: CCTCTCTATGGGCAGTCGGTGATCTAGGAATTCGTGCAGAGGTGACGTCATAGAATTCGCATCCCTCCAGAAGCTTGGAC
DNA 2: GTCCAAGCTTCTGGAGGGATGCGAATTCTATGACGTCACCTCTGCACGAATTCCTAGATCACCGACTGCCCATAGAGAGG

Legend:
[1] = molecular target: T1, TTHA1953; assay: BLI; 1 mM DTT; BLI: 20 mM Tris pH 7.5, 100 mM NaCl, 1 mM EDTA, 0.05% Tween-20, 1 mM DTT, 37 C; REPSA: 1x CutSmart, 1 mM DTT, 55 C 20 min then 37 C (REPA details not in materia); conditions: protein: recombinant; chain copies: 8; label: 5' biotin on ST2R strand; blunt
[2] = molecular target: the molecule itself; assay: native gel or EMSA; adaptation of a Ferguson plot; apparent weight of the TTHA1953 complex bound to its consensus-sequence DNA (Fig. S3)
[3] = molecular target: the molecule itself; assay: non-reducing SDS-PAGE; 2 μg recombinant TTHA1953 treated with buffer, 10 mM CuCl2 or H2O2 for 20 min; Laemmli buffer with or without 350 mM β-mercaptoethanol; Coomassie staining
[4] = molecular target: T1, TTHA1953; assay: BLI; 1 mM DTT; BLI: 20 mM Tris pH 7.5, 100 mM NaCl, 1 mM EDTA, 0.05% Tween-20, 1 mM DTT, 37 C; REPSA: 1x CutSmart, 1 mM DTT, 55 C 20 min then 37 C (REPA details not in materia); conditions: protein: recombinant, chain copies: 8, blunt
[5] = label: 5' biotin on ST2R strand

| Binder | Kd fold-change relative to consensus [1] | binding result [4, 5] | also measured |
| --- | --- | --- | --- |
| B1 | ~15 fold higher Kd than consensus | – | – |
| B2 | ~10 fold higher Kd than consensus | – | – |
| B3 | – | – | stoichiometry N [2]: 8; stoichiometry N [3]: 2 |
| B4 | – | no binding | – |
| B5 | – | no binding | – |
| B6 | – | – | binding result ([4]; label: 5' IRDye800 on ControlL strand (REPA)): no binding |

Reference: PMC10318464, “A CsoR family transcriptional regulator, TTHA1953, controls the sulfur oxidation pathway in Thermus thermophilus HB8” (The Journal of Biological Chemistry, 2023)
